Experimental data from patent US20070111265A1 (VAN ANDEL RESEARCH INSTITUTE, published 2007).
Substitutions are numbered along the chain they refer to. No end group written: not given here.

T1: MR LBD (C808S) with K785E first charge clamp mutation, 6xHis-GST fusion protein (human, UniProt P08235 727-984)
T1 construct: not shown: glutathione S-transferase (GST) tag; thrombin protease site between GST and the MR LBD
T1 sequence: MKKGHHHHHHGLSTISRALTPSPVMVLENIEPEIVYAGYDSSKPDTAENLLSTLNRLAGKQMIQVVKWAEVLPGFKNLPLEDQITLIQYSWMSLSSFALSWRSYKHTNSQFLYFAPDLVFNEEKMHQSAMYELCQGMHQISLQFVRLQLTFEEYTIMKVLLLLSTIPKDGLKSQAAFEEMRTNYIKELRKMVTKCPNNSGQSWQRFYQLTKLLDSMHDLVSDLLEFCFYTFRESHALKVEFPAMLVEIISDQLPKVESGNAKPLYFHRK

T2: MR LBD (C808S) with E962R first charge clamp (AF-2 helix) mutation, 6xHis-GST fusion protein (human, UniProt P08235 727-984)
T2 construct: not shown: glutathione S-transferase (GST) tag; thrombin protease site between GST and the MR LBD
T2 sequence: T1 sequence with E70K, E247R

T3: human MR LBD (residues 727-984) containing a C808S mutation, 6xHis-GST fusion protein (human, UniProt P08235 727-984)
T3 construct: also called purified MR LBD; MR LBD (C808S); not shown: glutathione S-transferase (GST) tag; thrombin protease site between GST and the MR LBD
T3 sequence: T1 sequence with E70K

B1: SRC2-(2+3), human SRC2 fragment (residues 563-763) containing the 2nd and 3rd LXXLL motifs, 6xHis-GST fusion protein (other, UniProt Q15596 563-763, looked up)
chain: QNSPVNMNPPPLSKMGSLDSKDCFGLYGEPSEGTTGQAESSCHPGEQKETNDPNLPPAVSSERADGQSRLHDSKGQTKLLQLLTTKSDQMEPSPLASSLSDTNKDSTGSLPGSGSTHGTSLKEKHKILHRLLQDSSSPVDLAKLTAEATGKDLSQESSSTAPGSEVTIKQEPVSPKKKENALLRYLLDKDDTKDIGLPEIT
notes: No removal of the 6xHis-GST tag is described; also called purified SRC2 fragment; not shown: 6xHis tag; glutathione S-transferase (GST) tag
B2: SRC2-(M2+3), SRC2 fragment (2+3) with the 2nd LXXLL motif mutated to LXXAA (other, UniProt Q15596 563-763, looked up)
chain: B1 chain with L131A, L132A
notes: not shown: 6xHis tag; glutathione S-transferase (GST) tag
B3: biotinylated SRC2-3 (TIF2) peptide (peptide)
peptide: QEPVSPKKKENALLRYLLDKDDTKD
modifications: also: biotinylated, site not given here
notes: also called third LXXLL motif of SRC2; TIF2/GRIP1 third motif
B4: unlabeled SRC1-4 peptide AQQKSLLQQLLTE (peptide)
peptide: AQQKSLLQQLLTE
notes: treated as one molecule; also called SRC1-4 LXXLL motif

Columns and labels:
[1] = target: T1, MR LBD (C808S) with K785E first charge …; assay: AlphaScreen, 100 nM corticosterone
[2] = target: T2, MR LBD (C808S) with E962R first charge …; assay: AlphaScreen, 100 nM corticosterone
[3] = target: T3, human MR LBD (residues 727-984) …; assay: AlphaScreen quantitative competition with unlabeled peptide, MR LBD/corticosterone
Method: (§1) The binding of various peptide motifs to MR was determined by AlphaScreen assays using a hexahistidine detection kit from Perkin-Elmer. MR proteins were prepared as 6×His-GST fusion proteins for the assays.

[4] = target: T3, human MR LBD (residues 727-984) …; assay: AlphaScreen competition (IC50 per FIG. 3F legend), MR LBD/corticosterone
Method: as §1

[5] = target: T3, human MR LBD (residues 727-984) …; assay: AlphaScreen, biotinylated peptide and 6xHis-GST MR LBD/corticosterone
Method: as §1

Binder	binding result [1]	IC50 [3]	also measured
SPSSHSSLTERHKILHRLLQEGSP (also: biotinylated, site not given here) [biotinylated SRC1-2 peptide]	no binding		binding result [2]: no binding
SQTSHKLVQLLTTTA (also called 1st motif of SRC1) [unlabeled SRC1-1 peptide]		21.4 µM	
B1			IC50 [4]: 0.04 µM
B2			fold decrease of binding affinity against SRC2-(2+3) [4]: > 10 fold
SKGHKKLLQLLTCSS (also called 1st motif of SRC3) [unlabeled SRC3-1 peptide]		16.8 µM	
GHSFADPASNLGLEDIIRKALMGSF (also: biotinylated, site not given here, also called N-COR corepressor motif) [biotinylated NCOR-2 peptide]			binding result [5]: no binding
B3	no binding		
QAVQEHASASTNMGLEAIIRKALMGKY (also: biotinylated, site not given here, also called SMRT corepressor motif) [biotinylated SMRT-2 peptide]			binding result [5]: no binding
QKPTSGPQTPQAQQKSLLQQLLTE (also: biotinylated, site not given here) [biotinylated SRC1-4 peptide]	no binding		
B4		0.9 µM	
